Data from publication PMC8533965.
Where a chain is given by its changes, count along the chain named. In names and notes the source's numbering stands. Where two headings read alike, the source gives them in different places. One block for each binder: values may come before it.

Key:
[1] = target: zebrafish Vasa, full length (amino acids 1–715), fused to the Venus N-terminal half (zfVasa-VN) (zebrafish); assay: split reporter (BiFC, NanoBiT); BiFC with split Venus in living zebrafish embryos: Buc constructs with VC and zfVasa constructs with VN at their C-termini, mRNAs (200 ng/μL) co-injected at the one-cell stage, fluorescence imaged at 3 hpf by confocal microscopy; read-out percent of fluorescent embryos, three independent …
[2] = target: zfVasa S608A (full length) fused to the Venus N-terminal half (zebrafish); assay: as above
[3] = target: zebrafish Vasa, full length (amino acids 1–715), fused to the Venus N-terminal half (zfVasa-VN) (zebrafish); assay: as above; remark: listed apart in the source
[4] = target: zfVasa S607A (full length) fused to the Venus N-terminal half (zebrafish); assay: as above
[5] = target: zfVasa-HC (helicase core, amino acids 278–715) fused to the Venus N-terminal half (zebrafish); assay: as above
[6] = target: zebrafish Vasa, full length (amino acids 1–715), fused to the Venus N-terminal half (zfVasa-VN) (zebrafish); assay: as above; remark: listed apart in the source
[7] = target: zfVasa RecA-CTD (amino acids 496–623) fused to the Venus N-terminal half (zebrafish); assay: as above
[8] = target: zfVasa-BBM (amino acids 600–625) fused to the Venus N-terminal half (zebrafish); assay: as above
[9] = target: zfVasa eRecA-CTD (extended sequence at the C-terminus of RecA-CTD, amino acids 624–715) fused to the Venus N-terminal half (zebrafish); assay: as above
[10] = target: zfVasa (amino acids 227–670), recombinant, GST tag removed (zebrafish)

percent of fluorescent embryos (BiFC) [2]: 27%
percent of fluorescent embryos (BiFC) [3]: 79%
percent of fluorescent embryos (BiFC) [4]: 38%
percent of fluorescent embryos (BiFC) [1]: 82%
percent of fluorescent embryos (BiFC) [5]: 70%
percent of fluorescent embryos (BiFC) [6]: 77%
percent of fluorescent embryos (BiFC) [7]: 64%
percent of fluorescent embryos (BiFC) [8]: 69%
percent of fluorescent embryos (BiFC) [9]: 14%
B2: Bucky ball, full length (amino acids 1–639), fused to the Venus C-terminal half (Buc-VC) (natural protein)
chain: MEGINNNSQPMGVGQPHHPVNHTRPFFYVQPPSQPYFMYQWPMNPYGHYGFPGPALHFGRPYMAPYQFMQYPGYVIPHAPMQPIDYRRINPHYPSVASYDLRVRHHFQNAGMHRETACSEVQTDPSDSVNKLIDKIESLKACELGSDKGPNNVVSSTPDVVQGEKLTRLNEDSNLEVATKECKEDPVTRPTTYSDSAYDAESSQGRLDECVFSDVLPLDSSSVHEEEEEEEKDVNEEDEPQTVADEICSQNEMSASTTSNVFCSGVQSIADPTECHDLEKLGDEQKQDIPSADAAAVIEPLISLSEDFDLPYQILRLPCNKTTTGLSLEREIDPLVYFDSPSTLLPPQNYLSSIGSAYSYSYYPQVTQERQSVLSPSIDELSSRDEMFSTDVEDLEVVPGHVYVGGGRLAEASDMPVRSRKELPSVDKTCSVCQKTCACCGSTLQDEVGMCKMAEHSHPERDEMSDQDCDYDLEAEVRSNCESPRVSKRKCCSRHALPSCGHHCAKHRHRKLLCEGQESCDLREQARVHPKGECCEEYGALAKADKRIQKGALCRPCIEQQWREGVVSDQENWASCGAKPRSWRQVTGPQDQGRTPLRRSTCKSIHQQRPRSEYNDYDETEFTYCQRGRGSMKKRGSRY

ATPase activity of 5-µM zfVasa with 2.5-mM ATP (NADH-coupled assay, absorption at 340 nm, 25 °C) on addition of 100-µM Buc-VBM, without RNA [10]: 2 fold
B3: Buc-VBM (amino acids 363–400), recombinant, GST tag removed (peptide)
chain: YPQVTQERQSVLSPSIDELSSRDEMFSTDVEDLEVVPG

percent of fluorescent embryos (BiFC) [3]: 43%
B5: Buc-VBM (amino acids 363–400) S389A fused to the Venus C-terminal half (domain or fragment)
chain: B3 chain with S27A

percent of fluorescent embryos (BiFC) [3]: 63%
B8: Buc-VBM (amino acids 363–400) R384G (non-conserved control) fused to the Venus C-terminal half (domain or fragment)
chain: B3 chain with R22G

The remaining lines, values behind:

B1: Buc amino acids 372–394 (highly conserved sequence, Buc-VBM) fused to the Venus C-terminal half (domain or fragment)
chain: SVLSPSIDELSSRDEMFSTDVED
percent of fluorescent embryos (BiFC) [1]: 66%

B4: Buc amino acids 363–400 fused to the Venus C-terminal half (domain or fragment)
chain: B3 chain
percent of fluorescent embryos (BiFC) [3]: 70%
percent of fluorescent embryos (BiFC) [1]: 72%

B6: Buc-VBM (amino acids 363–400) D379L fused to the Venus C-terminal half (domain or fragment)
chain: B3 chain with D17L
percent of fluorescent embryos (BiFC) [3]: 36%
percent of fluorescent embryos (BiFC) [1]: 38%

B7: Buc-VBM (amino acids 363–400) E386L fused to the Venus C-terminal half (domain or fragment)
chain: B3 chain with E24L
percent of fluorescent embryos (BiFC) [3]: 48%

B9: Buc-CTD (amino acids 363–639) fused to the Venus C-terminal half (domain or fragment)
chain: YPQVTQERQSVLSPSIDELSSRDEMFSTDVEDLEVVPGHVYVGGGRLAEASDMPVRSRKELPSVDKTCSVCQKTCACCGSTLQDEVGMCKMAEHSHPERDEMSDQDCDYDLEAEVRSNCESPRVSKRKCCSRHALPSCGHHCAKHRHRKLLCEGQESCDLREQARVHPKGECCEEYGALAKADKRIQKGALCRPCIEQQWREGVVSDQENWASCGAKPRSWRQVTGPQDQGRTPLRRSTCKSIHQQRPRSEYNDYDETEFTYCQRGRGSMKKRGSRY
percent of fluorescent embryos (BiFC) [1]: 77%
